Laboratory results reported in US20070020327A1.
Read-outs that look alike come from different tables or passages of the source. Blank lines part the entries; values can stand above or below the binder they belong to.

Key:
HLA-A*0201 (human) [1] = assay: competitive inhibition of 125I-labelled standard peptide binding to purified HLA, gel filtration
HLA-A*0202 (human) [2] = assay: as above
HLA-A*0203 (human) [3] = assay: as above
HLA-A*0206 (human) [4] = assay: as above
HLA-A*0201 (human) [5] = assay: inhibition of 125I-labelled probe peptide binding to purified HLA; gel filtration
HLA-A*0202 (human) [6] = assay: as above
HLA-A*0203 (human) [7] = assay: as above
HLA-A*0206 (human) [8] = assay: as above
HLA-A*6802 (human) [9] = assay: as above
HLA-A*1101 (human) = assay: competition with 125I-labelled standard peptide for purified HLA-A*1101, gel filtration
HLA-A*0201 (human) [10] = assay: competition with 125I-labelled standard peptide 941.01 for purified HLA-A*0201, gel filtration
HLA-A*0202 (human) [11] = assay: competition with 125I-labelled standard peptide 941.01 for purified HLA-A*0202, gel filtration
HLA-A*0206 (human) [12] = assay: competition with 125I-labelled standard peptide 941.01 for purified HLA-A*0206, gel filtration
HLA-A*0301 (human) [13] = assay: competition with radiolabeled standard peptide on purified HLA-A*0301, gel filtration; details: scale: ratio
HLA-A*0301 (human) [14] = assay: competition with 125I-labeled standard peptide for purified HLA-A*0301, gel filtration
HLA-A*0201 (human) [15] = assay: inhibition of 125I-labelled probe peptide binding to purified HLA, gel filtration
HLA-A*0202 (human) [16] = assay: as above
HLA-A*0203 (human) [17] = assay: as above
HLA-A*0206 (human) [18] = assay: as above
HLA-A*6802 (human) [19] = assay: as above
HLA-A*0201 (human) [20] = assay: competition with 125I-labeled probe peptide for purified HLA, gel filtration; details: remark: other sources report otherwise
HLA-A*0206 (human) [21] = assay: as above; details: remark: other sources report otherwise
HLA-A*6802 (human) [22] = assay: as above; details: remark: other sources report otherwise
[23] = remark: other sources report otherwise

binding affinity ratio (ratio to standard peptide) (HLA-A*0201 (human) [1]; [23]): 0.001
binding affinity ratio (ratio to standard peptide) (HLA-A*0202 (human) [2]; [23]): 0.012
binding affinity ratio (ratio to standard peptide) (HLA-A*0203 (human) [3]; [23]): 0.0096
binding affinity ratio (ratio to standard peptide) (HLA-A*0206 (human) [4]; [23]): 0.0001
B1: … (PSA, position 222) (peptide)
peptide: ITSWGSEPCAL
modifications: not checked

IC50 (HLA-A*0201 (human) [5]): 294 nM
IC50 (HLA-A*0202 (human) [6]): 12 nM
IC50 (HLA-A*0203 (human) [7]): 122 nM
IC50 (HLA-A*0206 (human) [8]): 195 nM
IC50 (HLA-A*6802 (human) [9]): 5.7 nM
B2: peptide 60.0213 (PAP.292.V9) (peptide)
peptide: TVSGLQMAV
modifications: not checked

binding affinity ratio (IC50 of standard peptide / IC50 of test peptide) (HLA-A*1101 (human); [23]): 0.014
B3: PSA 58 … (peptide)
peptide: TAAHCIRNK
modifications: not checked

binding affinity ratio (IC50 of standard peptide / IC50 of test peptide) (HLA-A*0201 (human) [10]): -0.0001
binding affinity ratio (IC50 of standard peptide / IC50 of test peptide) (HLA-A*0202 (human) [11]): 0.0006
binding affinity ratio (IC50 of standard peptide / IC50 of test peptide) (HLA-A*0206 (human) [12]): 0.0006
B4: … (Kallikrein, position 7) (peptide)
peptide: SIALSVGCT
modifications: not checked

IC50 (HLA-A*0201 (human) [5]): 25 nM
IC50 (HLA-A*0202 (human) [6]): 1.8 nM
IC50 (HLA-A*0203 (human) [7]): 17 nM
IC50 (HLA-A*6802 (human) [9]): 60 nM
B5: peptide 1419.69 (PAP.136.V10) (peptide)
peptide: LLWQPIPVHV
modifications: not checked

binding affinity ratio (HLA-A*0301 (human) [13]): 0.0002
B6: PSA 56 peptide … (peptide)
peptide: VLTAAHCIR
modifications: not checked

binding affinity ratio (IC50 of standard peptide / IC50 of test peptide) (HLA-A*0301 (human) [14]): 0.007
B7: … (PSA, position 99, 10 amino acids) (peptide)
peptide: MSLLKNRFLR
modifications: not checked

binding affinity ratio (IC50 of standard peptide / IC50 of test peptide) (HLA-A*1101 (human)): 0.0002
B8: PSM 361 … (peptide)
peptide: TLRGAVEPDR
modifications: not checked

binding affinity ratio (IC50 of standard peptide / IC50 of test peptide) (HLA-A*1101 (human)): 0.0002
B9: PSA 82 … (peptide)
peptide: TGQVFQVSH
modifications: not checked

IC50 (HLA-A*0201 (human) [15]): 13 nM
IC50 (HLA-A*0202 (human) [16]): 6.3 nM
IC50 (HLA-A*0203 (human) [17]): 2.8 nM
IC50 (HLA-A*0206 (human) [18]): 5.2 nM
IC50 (HLA-A*6802 (human) [19]): 205 nM
B10: Peptide 1418.52 (HuK2.170.V10) … (peptide)
peptide: SLQCVSLHLV
modifications: not checked

IC50 (HLA-A*0201 (human) [5]; [23]): 250 nM
IC50 (HLA-A*0202 (human) [6]; [23]): 94 nM
IC50 (HLA-A*0206 (human) [8]; [23]): 451 nM
IC50 (HLA-A*6802 (human) [9]; [23]): 2290 nM
B11: peptide 63.0041 (PAP.128.V10) (peptide)
peptide: GVSIWNPILV
modifications: not checked

binding affinity ratio (IC50 of standard peptide / IC50 of test peptide) (HLA-A*0301 (human) [14]): 0.0005
B12: … (PSM, position 638, 9 amino acids) (peptide)
peptide: NFTEIASKF
modifications: not checked

binding affinity ratio (IC50 of the standard peptide / IC50 of the test peptide) (HLA-A*1101 (human)): 0.0002
B13: PSM 168 peptide … (peptide)
peptide: GMPEGDLVY
modifications: not checked

binding affinity ratio (ratio to standard peptide) (HLA-A*0201 (human) [1]): 0.0001
binding affinity ratio (ratio to standard peptide) (HLA-A*0202 (human) [2]): 0.001
binding affinity ratio (ratio to standard peptide) (HLA-A*0203 (human) [3]): 0.0001
binding affinity ratio (ratio to standard peptide) (HLA-A*0206 (human) [4]): -0.0001
B14: ITDVVKVL (Kallikrein, position 132) (peptide)
peptide: ITDVVKVL
modifications: not checked

IC50 (HLA-A*0201 (human) [20]): 313 nM
IC50 (HLA-A*0206 (human) [21]): 40 nM
IC50 (HLA-A*6802 (human) [22]): 571 nM
B15: Peptide 1418.29 … (PSM.168.T2) (peptide)
peptide: GTPEGDLVYV
modifications: not checked

binding affinity ratio (IC50 of standard peptide / IC50 of test peptide) (HLA-A*0301 (human) [14]): 0.0006
B16: … (PSM, position 3, 9 amino acids) (peptide)
peptide: NLLHETDSA
modifications: not checked

binding affinity ratio (IC50 of standard peptide / IC50 of test peptide) (HLA-A*0301 (human) [14]): 0.0003
B17: LVFRHGDR (PAP, position 40, 8 amino acids) (peptide)
peptide: LVFRHGDR
modifications: not checked

IC50 (HLA-A*0201 (human) [5]; [23]): 278 nM
IC50 (HLA-A*0203 (human) [7]; [23]): 133 nM
IC50 (HLA-A*0206 (human) [8]; [23]): 2640 nM
B18: peptide 1419.6 (PAP.122) (peptide)
peptide: ALFPPEGVSI
modifications: not checked

IC50 (HLA-A*0201 (human) [5]; [23]): 73 nM
IC50 (HLA-A*0203 (human) [7]; [23]): 256 nM
B19: peptide 1177.02 (PAP.299) (peptide)
peptide: ALDVYNGLL
modifications: not checked
